# Experimental data published in patent US20230340151A1 (Pfizer, published 2023).
# Like-named read-outs stand apart in the source and are kept apart here.
# T1: Cynomolgus CD3 epsilon-delta (cynomolgus)
# T1 chain: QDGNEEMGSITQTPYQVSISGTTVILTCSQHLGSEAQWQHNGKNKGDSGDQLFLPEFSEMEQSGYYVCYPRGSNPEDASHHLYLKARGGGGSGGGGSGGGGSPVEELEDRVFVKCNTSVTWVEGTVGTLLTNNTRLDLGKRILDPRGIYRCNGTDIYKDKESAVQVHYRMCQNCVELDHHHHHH
# T2: Human CD3 epsilon-delta (human)
# T2 construct: Single-chain epsilon-linker-delta with His6; also called huCD3
# T2 chain: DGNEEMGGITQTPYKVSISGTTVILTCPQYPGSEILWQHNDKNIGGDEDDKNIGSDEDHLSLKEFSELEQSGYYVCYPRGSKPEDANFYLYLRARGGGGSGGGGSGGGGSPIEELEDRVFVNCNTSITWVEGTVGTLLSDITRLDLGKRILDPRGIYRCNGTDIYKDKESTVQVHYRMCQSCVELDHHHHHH
# T3: Murine GUCY2C-ECD cleaved (mouse, UniProt Q3UWA6 20-433)
# T3 sequence: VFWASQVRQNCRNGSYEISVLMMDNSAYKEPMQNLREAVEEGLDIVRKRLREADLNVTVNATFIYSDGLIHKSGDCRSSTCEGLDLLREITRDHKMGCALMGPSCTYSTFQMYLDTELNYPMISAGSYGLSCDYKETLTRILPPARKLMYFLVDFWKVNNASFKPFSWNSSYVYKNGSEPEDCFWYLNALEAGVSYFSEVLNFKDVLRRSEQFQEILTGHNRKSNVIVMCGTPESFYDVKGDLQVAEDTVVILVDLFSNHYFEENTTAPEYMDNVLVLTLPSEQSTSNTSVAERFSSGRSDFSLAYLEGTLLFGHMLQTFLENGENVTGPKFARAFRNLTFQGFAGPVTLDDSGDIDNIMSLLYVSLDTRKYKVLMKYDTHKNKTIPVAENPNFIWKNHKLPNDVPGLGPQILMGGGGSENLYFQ
# T4: Cynomolgus GUCY2C-ECD Cleaved (cynomolgus, UniProt P25092 24-430 (human entry))
# T4 construct: also called CyGUCY2C
# T4 chain: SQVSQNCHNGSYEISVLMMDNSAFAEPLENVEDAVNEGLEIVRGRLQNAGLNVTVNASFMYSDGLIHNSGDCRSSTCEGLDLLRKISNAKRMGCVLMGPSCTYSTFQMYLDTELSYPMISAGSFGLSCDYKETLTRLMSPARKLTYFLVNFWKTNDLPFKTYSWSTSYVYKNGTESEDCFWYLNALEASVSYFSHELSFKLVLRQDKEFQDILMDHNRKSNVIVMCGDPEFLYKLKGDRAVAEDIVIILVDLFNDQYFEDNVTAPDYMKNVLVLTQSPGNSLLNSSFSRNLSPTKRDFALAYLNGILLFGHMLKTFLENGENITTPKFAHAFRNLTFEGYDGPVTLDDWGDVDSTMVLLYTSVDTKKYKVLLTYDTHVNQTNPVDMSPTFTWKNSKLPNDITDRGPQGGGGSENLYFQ
# T5: Cynomolgus GUCY2C full length on 300.19 cells (cynomolgus, UniProt P25092 24-1073 (human entry))
# T5 construct: also called cyno GUCY2c
# T5 chain: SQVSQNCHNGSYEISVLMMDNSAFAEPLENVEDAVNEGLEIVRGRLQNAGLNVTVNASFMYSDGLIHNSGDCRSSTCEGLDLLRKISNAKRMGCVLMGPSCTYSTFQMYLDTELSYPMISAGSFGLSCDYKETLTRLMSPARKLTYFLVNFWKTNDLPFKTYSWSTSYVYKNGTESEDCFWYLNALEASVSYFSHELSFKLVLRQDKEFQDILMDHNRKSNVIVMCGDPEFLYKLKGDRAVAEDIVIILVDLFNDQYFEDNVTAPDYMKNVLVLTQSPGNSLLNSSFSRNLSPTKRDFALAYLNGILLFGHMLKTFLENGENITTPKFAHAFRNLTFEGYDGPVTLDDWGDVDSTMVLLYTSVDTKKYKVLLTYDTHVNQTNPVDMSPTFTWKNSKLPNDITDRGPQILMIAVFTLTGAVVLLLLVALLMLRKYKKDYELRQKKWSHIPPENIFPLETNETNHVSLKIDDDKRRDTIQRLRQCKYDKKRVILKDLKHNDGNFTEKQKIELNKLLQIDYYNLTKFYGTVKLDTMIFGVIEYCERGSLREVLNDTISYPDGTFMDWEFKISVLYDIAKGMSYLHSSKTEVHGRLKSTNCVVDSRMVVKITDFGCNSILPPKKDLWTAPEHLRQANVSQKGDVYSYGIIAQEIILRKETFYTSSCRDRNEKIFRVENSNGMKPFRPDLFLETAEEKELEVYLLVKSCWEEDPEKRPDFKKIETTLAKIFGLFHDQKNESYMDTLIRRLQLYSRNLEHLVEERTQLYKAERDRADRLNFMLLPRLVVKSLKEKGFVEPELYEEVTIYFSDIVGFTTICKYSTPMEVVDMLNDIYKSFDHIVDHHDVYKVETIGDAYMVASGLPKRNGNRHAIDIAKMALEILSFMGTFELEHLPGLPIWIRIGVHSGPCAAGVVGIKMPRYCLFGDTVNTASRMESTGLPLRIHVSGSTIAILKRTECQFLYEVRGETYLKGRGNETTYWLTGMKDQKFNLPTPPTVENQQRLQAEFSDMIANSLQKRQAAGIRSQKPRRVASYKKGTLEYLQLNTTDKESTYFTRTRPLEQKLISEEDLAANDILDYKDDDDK
# B1: GUCY2C-0247 (bispecific antibody)
# chain 1: DIQLTQSPSSLSASVGDRVTITCRASESVDYYGTSLMQWYQQKPGKPPKLLIYAASNVESGVPSRFSGSGSGTDFTLTISSLQPEDFATYYCQQTRKVYTFGQGTKLEIKGGGSGGGGEVQLVESGGGLVQPGGSLRLSCAASGFTFSDYYMTWVRQAPGKGLEWVAFIRNRARGYTSDHNPSVKGRFTISRDNAKNSLYLQMNSLRAEDTAVYYCARDRPSYYVLDYWGQGTTVTVSSGCPPCPAPEAAGAPSVFLFPPKPKDTLMISRTPEVTCVVVDVSHEDPEVKFNWYVDGVEVHNAKTKPREEQYNSTYRVVSVLTVLHQDWLNGKEYKCKVSNKALPAPIEKTISKAKGQPREPQVCTLPPSREEMTKNQVSLWCLVKGFYPSDIAVEWESNGQPENNYKTTPPVLDSDGSFFLYSKLTVDKSRWQQGNVFSCSVMHEALHNHYTQKSLSLSPG
# chain 2: DIVMTQSPDSLAVSLGERATINCKSSQSLFNVRSRKNYLAWYQQKPGQPPKLLISWASTRESGVPDRFSGSGSGTDFTLTISSLQAEDVAVYYCKQSYDLFTFGSGTKLEIKGGGSGGGGEVQLVESGGGLVQPGGSLRLSCAASGYTFTSYWMHWVRQAPGKGLEWIGEIKPSNGLTNYIEKFKNRFTISVDKAKNSAYLQMNSLRAEDTAVYYCTRTITTTEGYWFFDVWGQGTLVTVSSGCPPCPAPEAAGAPSVFLFPPKPKDTLMISRTPEVTCVVVDVSHEDPEVKFNWYVDGVEVHNAKTKPREEQYNSTYRVVSVLTVLHQDWLNGKEYKCKVSNKALPAPIEKTISKAKGQPREPQVYTLPPCREEMTKNQVSLSCAVKGFYPSDIAVEWESNGQPENNYKTTPPVLDSDGSFFLVSKLTVDKSRWQQGNVFSCSVMHEALHNHYTQKSLSLSPG
# B2: GUCY2C_ECD Peptide 19 (peptide)
# peptide: NSGDCRSSTCEGLDLLRKIS
# notes: also called GUCY2c peptide 19; GUCY2c-ECD peptide number 19
# B3: 9H3 (antibody)
# heavy: QVQLQQPGAELVKPGASVKLSCKASGYTFTSYWMHWVKQRPGQGLEWIGEIKPSNGLTNYIEKFKNKATLTVDKSATTAYMQLSSLTAEDSAVYYCTRTITTTEGYWFFDVWGAGTTVTVSSAKTTPPSVYPLAPGSAAQTNSMVTLGCLVKGYFPEPVTVTWNSGSLSSGVHTFPAVLQSDLYTLSSSVTVPSSTWPSETVTCNVAHPASSTKVDKKIVPRDCGCKPCICTVPEVSSVFIFPPKPKDVLTITLTPKVTCVVVDISKDDPEVQFSWFVDDVEVHTAQTQPREEQFNSTFRSVSELPIMHQDWLNGKEFKCRVNSAAFPAPIEKTISKTKGRPKAPQVYTIPPPKEQMAKDKVSLTCMITDFFPEDITVEWQWNGQPAENYKNTQPIMDTDGSYFVYSKLNVQKSNWEAGNTFTCSVLHEGLHNHHTEKSLSHSPGK
# light: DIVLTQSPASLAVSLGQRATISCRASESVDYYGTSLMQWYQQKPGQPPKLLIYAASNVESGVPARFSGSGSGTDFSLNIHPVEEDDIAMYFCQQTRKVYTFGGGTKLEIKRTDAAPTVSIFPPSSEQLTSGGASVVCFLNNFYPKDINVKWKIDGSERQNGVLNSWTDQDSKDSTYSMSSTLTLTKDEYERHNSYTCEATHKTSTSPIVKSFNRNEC
# notes: Tested as hybridoma antibody; also called GUCY2C-9H3
# How the values were obtained:
# [1] = molecular target: T6, Human GUCY2C full length (SEQ ID NO: 224), recombinant protein (human, UniProt P25092 24-430, limits assumed); experiment: SPR, GUCY2c directly immobilized, 25 C
# T6 construct: also called huGUCY2C; biotinylated human GUCY2c
# [2] = molecular target: T7, Human CD3 on naive human T cells (human, UniProt P07766 23-207); experiment: flow cytometry titration on naive human T cells (PE-A Geo Mean against Ab in nM)
# T7 construct: whole, on cells; on cells it stands in the CD3/TCR complex
# [3] = molecular target: T8, Human GUCY2c on tumor cells (T84, HT55) (human, UniProt P25092 24-1073); experiment: cell-based or functional assay
# [4] = molecular target: T1, Cynomolgus CD3 epsilon-delta; experiment: SPR, printed anti-His capture, 25 C (Table 33D)
# Human CD3 epsilon-delta = molecular target: T2, Human CD3 epsilon-delta; experiment: SPR, anti-human IgG capture, 25 C
# [5] = molecular target: T8, Human GUCY2c on tumor cells (T84, HT55); experiment: cell-based or functional assay; remark: listed apart in the source
# [6] = molecular target: T8, Human GUCY2c on tumor cells (T84, HT55); experiment: flow cytometry titration on T84 tumor cells (PE-A Geo Mean against Ab in nM)
# [7] = molecular target: T3, Murine GUCY2C-ECD cleaved; experiment: SPR, GUCY2c directly immobilized, 25 C
# Human GUCY2C ECD-muIgG2a = molecular target: T9, Human GUCY2C ECD-muIgG2a (human); experiment: huCD3-huGUCY2C sandwich ELISA (CD3 coated)
# T9 construct: also called human GUCY2c ECD-mouse IgG2a Fc fusion protein; huGUCY2c-mIgG2a
# [8] = molecular target: T6, Human GUCY2C full length (SEQ ID NO: …); experiment: SPR, anti-human IgG capture, 25 C
# [9] = molecular target: T4, Cynomolgus GUCY2C-ECD Cleaved; experiment: SPR, anti-human IgG capture, 25 C
# GUCY2C-1608 = molecular target: T10, GUCY2C-1608; experiment: competition DELFIA ELISA: peptide 19 in solution competes with the plate-bound full GUCY2c extracellular domain for GUCY2C-1608
# T10 construct: also called GUCY2c CD3 bispecific
# [10] = molecular target: T11, Murine GUCY2C full length on 300.19 cells (mouse, UniProt Q3UWA6 20-1072); experiment: IHC on cell pellets
# T11 construct: also called mouse GUCY2c
# [11] = molecular target: T5, Cynomolgus GUCY2C full length on 300.19 …; experiment: IHC on cell pellets
# T6 sequence (P25092 24-430 F281L limits assumed): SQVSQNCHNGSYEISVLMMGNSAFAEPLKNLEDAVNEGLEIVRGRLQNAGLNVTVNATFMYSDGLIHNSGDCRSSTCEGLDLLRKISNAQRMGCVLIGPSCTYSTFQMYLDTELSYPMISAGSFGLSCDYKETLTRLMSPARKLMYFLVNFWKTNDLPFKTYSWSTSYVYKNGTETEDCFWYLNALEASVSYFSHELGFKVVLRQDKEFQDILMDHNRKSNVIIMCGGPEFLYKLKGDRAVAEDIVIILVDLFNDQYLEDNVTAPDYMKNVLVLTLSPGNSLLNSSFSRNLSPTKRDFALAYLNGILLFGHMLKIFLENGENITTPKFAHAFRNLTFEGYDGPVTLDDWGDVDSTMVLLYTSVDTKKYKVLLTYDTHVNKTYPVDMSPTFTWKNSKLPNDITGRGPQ
# T8 sequence (P25092 24-1073 limits assumed): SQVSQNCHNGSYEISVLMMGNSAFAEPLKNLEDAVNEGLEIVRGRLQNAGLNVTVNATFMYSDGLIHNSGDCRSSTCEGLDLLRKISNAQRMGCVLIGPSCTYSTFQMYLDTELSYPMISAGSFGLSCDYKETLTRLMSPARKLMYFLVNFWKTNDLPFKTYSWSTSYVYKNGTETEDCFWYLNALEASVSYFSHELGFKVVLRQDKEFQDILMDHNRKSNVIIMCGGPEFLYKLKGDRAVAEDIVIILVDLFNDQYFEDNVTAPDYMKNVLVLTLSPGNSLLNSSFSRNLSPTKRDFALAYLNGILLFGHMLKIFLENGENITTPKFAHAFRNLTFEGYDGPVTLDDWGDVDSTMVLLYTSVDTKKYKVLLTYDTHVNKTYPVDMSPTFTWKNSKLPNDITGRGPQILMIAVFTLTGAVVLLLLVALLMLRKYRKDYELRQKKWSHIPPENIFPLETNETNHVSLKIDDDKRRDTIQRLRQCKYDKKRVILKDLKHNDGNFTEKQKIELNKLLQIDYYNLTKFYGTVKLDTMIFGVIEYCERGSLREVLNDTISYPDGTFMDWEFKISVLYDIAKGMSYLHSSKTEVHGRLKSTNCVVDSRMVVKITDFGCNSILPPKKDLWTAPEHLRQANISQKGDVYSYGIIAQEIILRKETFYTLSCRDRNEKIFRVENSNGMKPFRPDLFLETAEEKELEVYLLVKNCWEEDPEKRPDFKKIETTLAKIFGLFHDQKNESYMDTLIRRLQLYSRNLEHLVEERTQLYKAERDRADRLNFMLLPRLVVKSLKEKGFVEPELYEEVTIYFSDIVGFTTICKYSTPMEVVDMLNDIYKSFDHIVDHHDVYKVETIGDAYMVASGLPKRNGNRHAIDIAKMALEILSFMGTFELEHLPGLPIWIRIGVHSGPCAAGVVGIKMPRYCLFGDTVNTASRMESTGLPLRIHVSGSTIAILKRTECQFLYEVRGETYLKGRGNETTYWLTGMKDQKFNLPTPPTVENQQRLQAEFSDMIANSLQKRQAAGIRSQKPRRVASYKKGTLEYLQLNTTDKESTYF
# T9 sequence (chain, as listed by the source limits assumed): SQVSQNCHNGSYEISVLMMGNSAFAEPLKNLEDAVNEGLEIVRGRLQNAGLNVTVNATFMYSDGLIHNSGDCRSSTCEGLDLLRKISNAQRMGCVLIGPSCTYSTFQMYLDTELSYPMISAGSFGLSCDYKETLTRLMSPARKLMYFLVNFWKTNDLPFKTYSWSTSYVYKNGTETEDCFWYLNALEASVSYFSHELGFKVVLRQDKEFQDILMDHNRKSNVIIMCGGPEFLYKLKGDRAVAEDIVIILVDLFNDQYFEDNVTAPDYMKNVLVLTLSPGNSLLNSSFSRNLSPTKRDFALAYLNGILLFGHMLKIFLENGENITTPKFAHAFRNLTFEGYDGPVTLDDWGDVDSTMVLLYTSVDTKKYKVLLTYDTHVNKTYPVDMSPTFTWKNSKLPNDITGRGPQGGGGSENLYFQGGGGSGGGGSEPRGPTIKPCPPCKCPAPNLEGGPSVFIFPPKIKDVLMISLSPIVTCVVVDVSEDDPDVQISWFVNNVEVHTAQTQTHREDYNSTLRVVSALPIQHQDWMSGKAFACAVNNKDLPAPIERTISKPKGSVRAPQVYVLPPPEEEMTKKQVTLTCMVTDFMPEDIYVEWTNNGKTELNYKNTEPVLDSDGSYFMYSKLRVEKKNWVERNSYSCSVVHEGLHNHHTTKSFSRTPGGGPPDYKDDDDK
binder,measurement,setting,value
B1,Kd,[1],3.01 nM
same,koff,[1],0.000433 s⁻¹
same,kon,[1],144000 M⁻¹ s⁻¹
same,Kd,[2],6.18 nM
same,"T84 tumor cell EC50 (T cell cytotoxicity, E:T 5:1)",[3],0.07 nM
same,Kd,[4],3.61 nM
same,koff,[4],0.001 s⁻¹
same,kon,[4],280000 M⁻¹ s⁻¹
same,Kd,Human CD3 epsilon-delta,3.34 nM
same,koff,Human CD3 epsilon-delta,0.000985 s⁻¹
same,kon,Human CD3 epsilon-delta,295000 M⁻¹ s⁻¹
same,"T84 tumor cell EC50 (T cell cytotoxicity, E:T 5:1)",[5],0.07 nM
same,Kd,[6],1.32 nM
same,Kd,[7],12.2 nM
same,koff,[7],0.00183 s⁻¹
same,kon,[7],150000 M⁻¹ s⁻¹
same,EC50,Human GUCY2C ECD-muIgG2a,0.705 nM
same,Kd,[8],4.65 nM
same,koff,[8],0.000457 s⁻¹
same,kon,[8],98200 M⁻¹ s⁻¹
same,Kd,[9],4.35 nM
same,koff,[9],0.000369 s⁻¹
same,kon,[9],85500 M⁻¹ s⁻¹
B2,IC50 (read off the curve),GUCY2C-1608,~100 nM
B3,binding result,[10],binds
same,binding result,[11],binds
